Reference: US20160168251A1 (MorphoSys, published 2016)
Numbering of substitutions follows the chain as printed.

T1: human NPRA on HEK293 cells bound to ANP (human, UniProt P01160 124-151)
T1 sequence: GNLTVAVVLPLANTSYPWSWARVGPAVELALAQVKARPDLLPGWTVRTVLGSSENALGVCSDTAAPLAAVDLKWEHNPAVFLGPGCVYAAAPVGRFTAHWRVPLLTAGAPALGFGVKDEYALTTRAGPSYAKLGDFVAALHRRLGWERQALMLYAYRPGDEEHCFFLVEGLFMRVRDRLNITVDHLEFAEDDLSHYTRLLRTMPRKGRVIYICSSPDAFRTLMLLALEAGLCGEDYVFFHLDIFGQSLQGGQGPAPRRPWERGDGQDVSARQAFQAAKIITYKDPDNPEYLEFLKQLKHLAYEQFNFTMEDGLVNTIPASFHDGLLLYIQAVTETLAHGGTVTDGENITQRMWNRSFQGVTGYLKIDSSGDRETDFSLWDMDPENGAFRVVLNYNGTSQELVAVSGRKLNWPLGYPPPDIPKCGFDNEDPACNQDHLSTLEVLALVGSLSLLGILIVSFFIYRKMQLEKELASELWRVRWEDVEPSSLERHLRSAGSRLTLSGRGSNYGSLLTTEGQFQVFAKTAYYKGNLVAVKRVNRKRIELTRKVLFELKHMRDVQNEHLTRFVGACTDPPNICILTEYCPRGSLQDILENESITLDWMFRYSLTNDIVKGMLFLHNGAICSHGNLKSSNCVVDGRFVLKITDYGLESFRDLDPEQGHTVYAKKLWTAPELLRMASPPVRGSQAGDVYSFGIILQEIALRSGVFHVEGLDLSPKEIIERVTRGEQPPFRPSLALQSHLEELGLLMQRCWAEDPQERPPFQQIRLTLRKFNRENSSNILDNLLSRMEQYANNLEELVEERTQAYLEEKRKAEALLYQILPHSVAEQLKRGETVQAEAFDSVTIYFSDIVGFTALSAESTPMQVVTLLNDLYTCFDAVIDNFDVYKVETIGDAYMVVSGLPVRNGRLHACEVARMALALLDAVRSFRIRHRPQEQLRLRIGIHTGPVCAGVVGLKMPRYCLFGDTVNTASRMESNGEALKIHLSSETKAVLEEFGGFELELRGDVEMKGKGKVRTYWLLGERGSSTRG
T1 sequence (peptide): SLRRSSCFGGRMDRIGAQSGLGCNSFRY

T2: human NPRC on HEK293 cells in the presence of BNP (human, UniProt P17342 27-541; P16860 103-134)
T2 construct: whole, on cells;mature; also called HEK NPRC cells + 100 nM BNP
T2 sequence (looked up): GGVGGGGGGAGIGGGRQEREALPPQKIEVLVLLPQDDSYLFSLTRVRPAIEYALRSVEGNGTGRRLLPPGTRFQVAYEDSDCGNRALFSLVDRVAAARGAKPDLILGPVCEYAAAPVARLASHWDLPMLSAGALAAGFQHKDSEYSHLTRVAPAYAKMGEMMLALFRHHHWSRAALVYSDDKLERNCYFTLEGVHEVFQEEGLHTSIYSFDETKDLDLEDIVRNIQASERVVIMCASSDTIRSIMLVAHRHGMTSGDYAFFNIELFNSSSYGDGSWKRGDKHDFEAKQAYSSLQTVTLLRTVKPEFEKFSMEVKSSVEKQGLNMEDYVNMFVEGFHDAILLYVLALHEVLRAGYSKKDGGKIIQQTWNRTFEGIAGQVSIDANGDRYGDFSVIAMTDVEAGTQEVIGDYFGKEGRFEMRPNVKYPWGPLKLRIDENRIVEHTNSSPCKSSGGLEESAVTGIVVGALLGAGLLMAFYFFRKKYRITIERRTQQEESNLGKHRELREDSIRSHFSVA
T2 sequence (peptide, looked up): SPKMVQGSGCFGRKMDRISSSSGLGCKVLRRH

T3: human NPRC on HEK293 cells, without added ligand (human, UniProt P17342 27-541)
T3 construct: whole, on cells; also called HEK NPRC cells; natriuretic peptide receptor C
T3 sequence (looked up): T2 sequence (looked up)

T4: human NPRC on HEK293 cells in the presence of ANP (human, UniProt P17342 27-541; P01160 124-151)
T4 construct: whole, on cells;mature; also called HEK NPRC cells + 100 nM ANP
T4 sequence (looked up): T2 sequence (looked up)
T4 sequence (peptide, looked up): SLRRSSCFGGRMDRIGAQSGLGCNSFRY

B1: 5502 IgG4_Pro (antibody, V domains shown)
VH: QVQLQQSGPGLVKPSQTLSLTCAISGDSVSSRSASWSWIRQSPGRGLEWLGRIYYRSKWYNDYAVSVKSRITINPDTSKNQFSLQLNSVTPEDTAVYYCARMDVPSFRYFDVWGQGTLVTVSS
VL: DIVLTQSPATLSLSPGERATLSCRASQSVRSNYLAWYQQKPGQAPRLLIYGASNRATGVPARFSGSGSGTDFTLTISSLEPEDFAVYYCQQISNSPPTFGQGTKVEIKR
notes: Human IgG4_Pro
B2: 5592 IgG4_Pro (antibody, V domains shown)
VH: B1 VH with I53T, K58H, N61Y, D62E, V65Q
VL: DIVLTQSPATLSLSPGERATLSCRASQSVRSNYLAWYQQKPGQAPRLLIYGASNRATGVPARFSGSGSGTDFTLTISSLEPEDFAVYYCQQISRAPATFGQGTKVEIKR
B3: 5591 IgG4_Pro (antibody, V domains shown)
VH: B1 VH with I53T, K58H, N61Y, D62E, V65Q
VL: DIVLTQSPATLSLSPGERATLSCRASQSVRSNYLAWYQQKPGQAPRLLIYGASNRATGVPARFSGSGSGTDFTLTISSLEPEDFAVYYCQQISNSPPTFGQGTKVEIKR

Columns and labels:
[1] = molecular target: T1, human NPRA on HEK293 cells bound to ANP; test: cell-based or functional assay
[2] = molecular target: T1, human NPRA on HEK293 cells bound to ANP; test: cell-based or functional assay; remark: listed apart in the source
[3] = molecular target: T2, human NPRC on HEK293 cells in the …; test: FACS, HEK NPRC cells with 100 nM BNP
Experimental: (§1) HEK NPRA cells are detached with Accutase (PAA Laboratories GmbH, Cat. No. L11-007, Austria), harvested by centrifugation (900 rpm, 4 minutes) and resuspended in FACS buffer (PBS/3% FCS/0.02% NaN3) to a final concentration of 10⁶ cells/ml. 100 μl of the cell suspension is transferred to each well of a 96 round bottom plate (TC Microwell 96U, Nunc). […] Cells are washed in 150 μl of FACS buffer, pelleted and resuspended in 50 μl of the solution containing the primary antibody comprising a BEL extract of Fabs, a diluted BEL extract or purified antibody diluted in FACS buffer and incubated on ice for 30 min. Cells are washed again in FACS buffer and resuspended in 50 μl of FACS buffer containing the secondary antibody (R-Phycoerythrin-conjugated Affipure F(ab′)₂ Fragment Goat Anti-Human IgG, Dianova) and incubated on ice for 45 min. Cells are washed twice with FACS buffer and resuspended in 200 μl of FACS buffer for analysis in the FACS Array (BD Biosciences).

[4] = molecular target: T3, human NPRC on HEK293 cells, without …; test: FACS, HEK NPRC cells without ligand
Experimental: as §1

[5] = molecular target: T1, human NPRA on HEK293 cells bound to ANP; test: FACS, IgG4_Pro on HEK NPRA cells in the presence of 100 nM ANP
Experimental: as §1

[6] = molecular target: T5, NPRA-Fc fusion protein bound to urodilatin (human, UniProt P01160 120-151); test: SPR (Biacore 3000), NPRA-Fc amine-coupled on CM5, IgG with 100 nM human urodilatin
T5 construct: Receptor-ligand complex; also called NPRA-Fc in the presence of urodilatin

[7] = molecular target: T4, human NPRC on HEK293 cells in the …; test: FACS, HEK NPRC cells with 100 nM ANP
Experimental: as §1

[8] = molecular target: T6, NPRA-Fc fusion protein bound to BNP (human, UniProt P16860 103-134); test: SPR (Biacore 3000), NPRA-Fc amine-coupled on CM5, IgG with 100 nM human BNP
T6 construct: mature; Receptor-ligand complex; also called NPRA-Fc in the presence of BNP
Experimental: In another assay, the purified human NPRA-Fc fusion protein construct is used to develop a surface plasmon resonance (BIAcore) assay for determining affinity and kinetic constants for the antibodies. NPRA-Fc in 10 mM sodium acetate buffer, pH 5.5 is immobilized on a CM5 chip in a Biacore 3000 instrument (GE Healthcare, Biacore, Inc.) through amine coupling at a density of 1000 RU. […] The collected association and dissociation data from each experiment is globally fitted with the association (kₐ) and dissociation (kd) rates fit simultaneously.

[9] = molecular target: T7, NPRA-Fc fusion protein bound to ANP (human, UniProt P01160 124-151); test: SPR (Biacore 3000), NPRA-Fc amine-coupled on CM5, analyte with 100 nM human ANP
T7 construct: mature; Receptor-ligand complex; 'human ANP' is stated for Biacore, plain 'ANP' for ELISA and HXMS; also called NPRA-Fc+ANP

[10] = molecular target: T8, human NPRB on HEK293 cells in the presence of CNP (human, UniProt P20594 23-1047; P23582 105-126); test: FACS, HEK NPRB cells with 100 nM CNP
T8 construct: whole, on cells;mature; also called HEK NPRB cells + 100 nM CNP
T8 sequence (P20594 23-1047 limits assumed, chain 1 of 2): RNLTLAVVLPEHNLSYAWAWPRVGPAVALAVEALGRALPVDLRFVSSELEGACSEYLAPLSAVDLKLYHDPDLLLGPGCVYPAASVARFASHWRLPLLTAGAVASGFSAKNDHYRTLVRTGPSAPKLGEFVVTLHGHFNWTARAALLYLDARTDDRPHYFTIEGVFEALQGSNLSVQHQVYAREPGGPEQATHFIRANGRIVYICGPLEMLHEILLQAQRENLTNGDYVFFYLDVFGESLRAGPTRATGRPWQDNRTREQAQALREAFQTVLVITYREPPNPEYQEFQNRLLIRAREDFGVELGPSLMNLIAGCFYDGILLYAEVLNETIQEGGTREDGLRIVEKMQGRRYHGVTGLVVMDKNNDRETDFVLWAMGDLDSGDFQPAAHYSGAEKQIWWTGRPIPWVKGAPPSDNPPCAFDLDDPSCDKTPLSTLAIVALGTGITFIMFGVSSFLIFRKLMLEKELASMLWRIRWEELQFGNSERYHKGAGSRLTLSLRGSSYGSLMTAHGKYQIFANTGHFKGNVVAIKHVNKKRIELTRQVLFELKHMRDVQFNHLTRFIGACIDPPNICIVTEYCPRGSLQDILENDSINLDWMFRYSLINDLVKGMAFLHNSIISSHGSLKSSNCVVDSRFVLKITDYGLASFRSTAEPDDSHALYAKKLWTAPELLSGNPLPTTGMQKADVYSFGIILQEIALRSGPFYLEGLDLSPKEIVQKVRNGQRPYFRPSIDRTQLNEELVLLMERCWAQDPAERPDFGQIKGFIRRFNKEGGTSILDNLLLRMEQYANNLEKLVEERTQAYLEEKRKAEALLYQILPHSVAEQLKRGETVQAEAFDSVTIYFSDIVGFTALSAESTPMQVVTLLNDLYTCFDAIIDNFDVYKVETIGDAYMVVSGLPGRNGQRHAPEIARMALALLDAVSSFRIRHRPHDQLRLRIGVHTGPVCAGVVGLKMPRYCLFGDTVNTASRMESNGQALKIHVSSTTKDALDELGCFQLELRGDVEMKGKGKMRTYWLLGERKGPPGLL
T8 sequence (P23582 105-126 limits assumed, chain 2 of 2): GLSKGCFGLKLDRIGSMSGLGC
Experimental: as §1

Binder	cGMP EC50 (nM), titration of the antibody on HEK NPRA cells with 200 pM ANP [1] [nM]	fold increase in the potency of ANP (cGMP, HEK NPRA cells, 200 nM IgG4_Pro) [2] [fold]	binding result [3]	binding result [4]	EC50 [5] [nM]	Kd [6] [nM]	koff [6] [s⁻¹]	kon [6] [M⁻¹ s⁻¹]	binding result [7]	Kd [8] [nM]	koff [8] [s⁻¹]	kon [8] [M⁻¹ s⁻¹]	Kd [9] [nM]	koff [9] [s⁻¹]	kon [9] [M⁻¹ s⁻¹]	binding result [10]
B1	2.1	≤ 10	no binding (tested: 20 nM)	no binding (tested: 20 nM)	0.68	0.211	0.000448	2.12e+06	no binding (tested: 20 nM)	0.413	0.000563	1.36e+06	0.172	0.000283	1.65e+06	–
B2	1	≤ 10	no binding (tested: 20 nM)	no binding (tested: 20 nM)	0.52	0.0251	9.94e-05	3.96e+06	no binding (tested: 20 nM)	0.0459	0.00034	7.42e+06	0.011	0.000106	9.59e+06	no binding (tested: 20 nM)
B3	0.5	≤ 10	no binding (tested: 20 nM)	no binding (tested: 20 nM)	0.73	0.0928	0.000238	2.56e+06	no binding (tested: 20 nM)	0.38	0.00102	2.69e+06	0.0275	0.000107	3.88e+06	no binding (tested: 20 nM)
